Assay results published in IntAct's records for PubMed 29426014.

B1: Ubiquitin-protein ligase (Homo sapiens), Q05086-1 (parent)
chain: MEKLHQCYWKSGEPQSDDIEASRMKRAAAKHLIERYYHQLTEGCGNEACTNEFCASCPTFLRMDNNAAAIKALELYKINAKLCDPHPSKKGASSAYLENSKGAPNNSCSEIKMNKKGARIDFKDVTYLTEEKVYEILELCREREDYSPLIRVIGRVFSSAEALVQSFRKVKQHTKEELKSLQAKDEDKDEDEKEKAACSAAAMEEDSEASSSRIGDSSQGDNNLQKLGPDDVSVDIDAIRRVYTRLLSNEKIETAFLNALVYLSPNVECDLTYHNVYSRDPNYLNLFIIVMENRNLHSPEYLEMALPLFCKAMSKLPLAAQGKLIRLWSKYNADQIRRMMETFQQLITYKVISNEFNSRNLVNDDDAIVAASKCLKMVYYANVVGGEVDTNHNEEDDEEPIPESSELTLQELLGEERRNKKGPRVDPLETELGVKTLDCRKPLIPFEEFINEPLNEVLEMDKDYTFFKVETENKFSFMTCPFILNAVTKNLGLYYDNRIRMYSERRITVLYSLVQGQQLNPYLRLKVRRDHIIDDALVRLEMIAMENPADLKKQLYVEFEGEQGVDEGGVSKEFFQLVVEEIFNPDIGMFTYDESTKLFWFNPSSFETEGQFTLIGIVLGLAIYNNCILDVHFPMVVYRKLMGKKGTFRDLGDSHPVLYQSLKDLLEYEGNVEDDMMITFQISQTDLFGNPMMYDLKENGDKIPITNENRKEFVNLYSDYILNKSVEKQFKAFRRGFHMVTNESPLKYLFRPEEIELLICGSRNLDFQALEETTEYDGGYTRDSVLIREFWEIVHSFTDEQKRLFLQFTTGTDRAPVGGLGKLKMIIAKNGPDTERLPTSHTCFNVLLLPEYSSKEKLKERLLKAITYAKGFGML
partner: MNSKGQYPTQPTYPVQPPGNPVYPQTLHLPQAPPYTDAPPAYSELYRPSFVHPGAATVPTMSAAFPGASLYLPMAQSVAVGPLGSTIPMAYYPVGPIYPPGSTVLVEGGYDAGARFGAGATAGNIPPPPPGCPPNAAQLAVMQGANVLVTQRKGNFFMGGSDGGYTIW
B2: Ubiquitin-protein ligase (Homo sapiens), Q05086-3 (parent)
chain: MATACKRSGEPQSDDIEASRMKRAAAKHLIERYYHQLTEGCGNEACTNEFCASCPTFLRMDNNAAAIKALELYKINAKLCDPHPSKKGASSAYLENSKGAPNNSCSEIKMNKKGARIDFKDVTYLTEEKVYEILELCREREDYSPLIRVIGRVFSSAEALVQSFRKVKQHTKEELKSLQAKDEDKDEDEKEKAACSAAAMEEDSEASSSRIGDSSQGDNNLQKLGPDDVSVDIDAIRRVYTRLLSNEKIETAFLNALVYLSPNVECDLTYHNVYSRDPNYLNLFIIVMENRNLHSPEYLEMALPLFCKAMSKLPLAAQGKLIRLWSKYNADQIRRMMETFQQLITYKVISNEFNSRNLVNDDDAIVAASKCLKMVYYANVVGGEVDTNHNEEDDEEPIPESSELTLQELLGEERRNKKGPRVDPLETELGVKTLDCRKPLIPFEEFINEPLNEVLEMDKDYTFFKVETENKFSFMTCPFILNAVTKNLGLYYDNRIRMYSERRITVLYSLVQGQQLNPYLRLKVRRDHIIDDALVRLEMIAMENPADLKKQLYVEFEGEQGVDEGGVSKEFFQLVVEEIFNPDIGMFTYDESTKLFWFNPSSFETEGQFTLIGIVLGLAIYNNCILDVHFPMVVYRKLMGKKGTFRDLGDSHPVLYQSLKDLLEYEGNVEDDMMITFQISQTDLFGNPMMYDLKENGDKIPITNENRKEFVNLYSDYILNKSVEKQFKAFRRGFHMVTNESPLKYLFRPEEIELLICGSRNLDFQALEETTEYDGGYTRDSVLIREFWEIVHSFTDEQKRLFLQFTTGTDRAPVGGLGKLKMIIAKNGPDTERLPTSHTCFNVLLLPEYSSKEKLKERLLKAITYAKGFGML
B3: Ubiquitin-protein ligase (Homo sapiens), Q05086-1 (parent)
chain: B1 chain
partner: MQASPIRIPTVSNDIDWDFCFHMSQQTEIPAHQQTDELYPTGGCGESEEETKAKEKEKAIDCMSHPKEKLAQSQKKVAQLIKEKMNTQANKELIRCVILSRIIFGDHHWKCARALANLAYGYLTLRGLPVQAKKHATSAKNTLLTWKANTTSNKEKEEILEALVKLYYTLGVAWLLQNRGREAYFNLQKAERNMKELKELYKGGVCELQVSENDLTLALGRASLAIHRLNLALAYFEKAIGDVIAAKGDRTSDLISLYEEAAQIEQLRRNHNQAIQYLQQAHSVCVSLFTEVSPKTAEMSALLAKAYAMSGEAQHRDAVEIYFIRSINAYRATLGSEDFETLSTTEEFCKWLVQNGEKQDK
B4: Ubiquitin-protein ligase (Homo sapiens), Q05086-3 (parent)
chain: B2 chain
partner: B1 partner
B5: Ubiquitin-protein ligase (Homo sapiens), Q05086-2 (parent)
chain: MKRAAAKHLIERYYHQLTEGCGNEACTNEFCASCPTFLRMDNNAAAIKALELYKINAKLCDPHPSKKGASSAYLENSKGAPNNSCSEIKMNKKGARIDFKDVTYLTEEKVYEILELCREREDYSPLIRVIGRVFSSAEALVQSFRKVKQHTKEELKSLQAKDEDKDEDEKEKAACSAAAMEEDSEASSSRIGDSSQGDNNLQKLGPDDVSVDIDAIRRVYTRLLSNEKIETAFLNALVYLSPNVECDLTYHNVYSRDPNYLNLFIIVMENRNLHSPEYLEMALPLFCKAMSKLPLAAQGKLIRLWSKYNADQIRRMMETFQQLITYKVISNEFNSRNLVNDDDAIVAASKCLKMVYYANVVGGEVDTNHNEEDDEEPIPESSELTLQELLGEERRNKKGPRVDPLETELGVKTLDCRKPLIPFEEFINEPLNEVLEMDKDYTFFKVETENKFSFMTCPFILNAVTKNLGLYYDNRIRMYSERRITVLYSLVQGQQLNPYLRLKVRRDHIIDDALVRLEMIAMENPADLKKQLYVEFEGEQGVDEGGVSKEFFQLVVEEIFNPDIGMFTYDESTKLFWFNPSSFETEGQFTLIGIVLGLAIYNNCILDVHFPMVVYRKLMGKKGTFRDLGDSHPVLYQSLKDLLEYEGNVEDDMMITFQISQTDLFGNPMMYDLKENGDKIPITNENRKEFVNLYSDYILNKSVEKQFKAFRRGFHMVTNESPLKYLFRPEEIELLICGSRNLDFQALEETTEYDGGYTRDSVLIREFWEIVHSFTDEQKRLFLQFTTGTDRAPVGGLGKLKMIIAKNGPDTERLPTSHTCFNVLLLPEYSSKEKLKERLLKAITYAKGFGML
partner: B1 partner
B6: Ubiquitin-protein ligase (Homo sapiens), Q05086-2 (parent)
chain: B5 chain

Variants of: B1
Conditions: with DAZAP2, Q15038-1

effect of a mutation on the interaction	Variant
causing an interaction	C843A

Variants of: B2
Conditions: with ZNF250, P15622-3
Target sequence in this assay (P15622 other isoform, or with tags, fused parts or gaps): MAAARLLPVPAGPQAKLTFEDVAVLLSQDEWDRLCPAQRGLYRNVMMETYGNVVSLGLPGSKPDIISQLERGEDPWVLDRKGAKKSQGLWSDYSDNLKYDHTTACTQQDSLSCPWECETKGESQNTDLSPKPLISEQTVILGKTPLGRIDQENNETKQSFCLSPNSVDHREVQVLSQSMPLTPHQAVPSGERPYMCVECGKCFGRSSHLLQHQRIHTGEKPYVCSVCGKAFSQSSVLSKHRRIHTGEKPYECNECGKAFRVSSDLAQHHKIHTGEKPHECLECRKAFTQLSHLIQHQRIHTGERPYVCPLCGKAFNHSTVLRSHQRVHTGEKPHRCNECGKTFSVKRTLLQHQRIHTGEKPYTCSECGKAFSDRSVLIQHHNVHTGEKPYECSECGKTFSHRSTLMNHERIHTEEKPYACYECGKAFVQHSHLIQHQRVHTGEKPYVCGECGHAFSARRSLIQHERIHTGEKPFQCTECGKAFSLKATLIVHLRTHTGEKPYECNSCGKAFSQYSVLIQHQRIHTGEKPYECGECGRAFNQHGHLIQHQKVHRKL

effect of a mutation on the interaction	Variant
causing an interaction	C840A

Variants of: B2
Conditions: with PAX6, P26367-1
Target sequence in this assay (P26367 whole entry): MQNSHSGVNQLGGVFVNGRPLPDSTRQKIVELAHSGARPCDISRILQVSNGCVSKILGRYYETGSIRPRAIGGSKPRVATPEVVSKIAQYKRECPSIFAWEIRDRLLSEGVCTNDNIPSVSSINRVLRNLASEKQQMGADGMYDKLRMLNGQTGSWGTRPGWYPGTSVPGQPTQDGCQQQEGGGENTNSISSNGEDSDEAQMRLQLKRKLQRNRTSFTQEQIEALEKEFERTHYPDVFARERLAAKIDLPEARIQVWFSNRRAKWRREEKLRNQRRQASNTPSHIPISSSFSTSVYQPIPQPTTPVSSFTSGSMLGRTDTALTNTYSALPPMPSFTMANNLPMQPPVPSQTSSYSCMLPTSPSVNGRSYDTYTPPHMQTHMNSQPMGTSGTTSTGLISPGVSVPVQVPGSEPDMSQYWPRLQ

effect of a mutation on the interaction	Variant
causing an interaction	C840A

Variants of: B2
Conditions: with magac_human MAGEA12, P43365
Target sequence in this assay (P43365 whole entry): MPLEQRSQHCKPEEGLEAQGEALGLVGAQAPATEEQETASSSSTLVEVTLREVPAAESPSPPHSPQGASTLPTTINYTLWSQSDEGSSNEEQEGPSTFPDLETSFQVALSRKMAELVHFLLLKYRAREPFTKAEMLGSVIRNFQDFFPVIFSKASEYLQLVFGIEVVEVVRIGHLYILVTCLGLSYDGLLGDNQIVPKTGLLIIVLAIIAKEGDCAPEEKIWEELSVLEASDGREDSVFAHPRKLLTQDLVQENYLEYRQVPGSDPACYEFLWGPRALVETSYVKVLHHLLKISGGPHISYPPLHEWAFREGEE

effect of a mutation on the interaction	Variant
with no effect	C840A

Variants of: B2
Conditions: with PSMD4, P55036-1
Target sequence in this assay (P55036 whole entry): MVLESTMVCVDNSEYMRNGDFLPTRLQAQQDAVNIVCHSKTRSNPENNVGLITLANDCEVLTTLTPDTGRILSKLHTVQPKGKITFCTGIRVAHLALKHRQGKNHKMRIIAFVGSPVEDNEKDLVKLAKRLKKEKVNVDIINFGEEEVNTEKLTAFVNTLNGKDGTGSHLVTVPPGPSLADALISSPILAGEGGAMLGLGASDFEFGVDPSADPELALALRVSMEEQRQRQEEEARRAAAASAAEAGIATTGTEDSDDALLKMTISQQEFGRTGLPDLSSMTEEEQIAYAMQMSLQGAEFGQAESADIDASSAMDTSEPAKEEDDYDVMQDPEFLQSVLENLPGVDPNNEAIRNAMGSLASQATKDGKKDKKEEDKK

effect of a mutation on the interaction	Variant
with no effect	C840A

Variants of: B2
Conditions: with PAX5, Q02548-1
Target sequence in this assay (Q02548 whole entry): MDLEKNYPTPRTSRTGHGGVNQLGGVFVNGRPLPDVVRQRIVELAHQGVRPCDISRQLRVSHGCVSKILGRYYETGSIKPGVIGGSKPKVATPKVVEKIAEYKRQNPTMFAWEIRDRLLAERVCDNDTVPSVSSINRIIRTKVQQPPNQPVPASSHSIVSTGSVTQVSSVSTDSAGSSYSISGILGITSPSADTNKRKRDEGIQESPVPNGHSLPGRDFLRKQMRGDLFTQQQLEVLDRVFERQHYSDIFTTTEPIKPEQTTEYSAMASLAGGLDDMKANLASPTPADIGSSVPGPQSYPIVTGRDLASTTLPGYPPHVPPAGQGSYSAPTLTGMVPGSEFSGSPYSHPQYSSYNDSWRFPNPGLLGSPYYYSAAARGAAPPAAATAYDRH

effect of a mutation on the interaction	Variant
causing an interaction	C840A

Variants of: B2
Conditions: with PTCD3, Q96EY7-1

effect of a mutation on the interaction	Variant
with no effect	C840A

Variants of: B2
Conditions: with ubql2_human UBQLN2, Q9UHD9
Target sequence in this assay (Q9UHD9 whole entry): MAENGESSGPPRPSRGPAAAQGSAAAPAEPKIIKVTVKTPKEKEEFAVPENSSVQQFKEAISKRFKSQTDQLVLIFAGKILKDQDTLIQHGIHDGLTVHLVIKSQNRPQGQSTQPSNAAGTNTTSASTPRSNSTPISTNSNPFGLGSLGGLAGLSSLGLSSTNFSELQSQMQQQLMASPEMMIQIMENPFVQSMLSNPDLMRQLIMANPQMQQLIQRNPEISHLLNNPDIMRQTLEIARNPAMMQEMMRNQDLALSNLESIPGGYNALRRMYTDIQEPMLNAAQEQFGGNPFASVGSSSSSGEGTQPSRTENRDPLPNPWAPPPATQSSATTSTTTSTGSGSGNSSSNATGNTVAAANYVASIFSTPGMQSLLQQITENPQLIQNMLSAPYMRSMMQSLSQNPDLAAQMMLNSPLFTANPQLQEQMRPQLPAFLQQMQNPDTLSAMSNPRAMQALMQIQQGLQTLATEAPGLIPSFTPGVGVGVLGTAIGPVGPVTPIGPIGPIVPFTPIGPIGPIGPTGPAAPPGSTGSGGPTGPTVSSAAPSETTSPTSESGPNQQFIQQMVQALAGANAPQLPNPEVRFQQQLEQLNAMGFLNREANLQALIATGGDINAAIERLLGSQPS

effect of a mutation on the interaction	Variant
with no effect	C840A

Variants of: B2
Conditions: with UBQLN1, Q9UMX0-1
Target sequence in this assay (Q9UMX0 whole entry): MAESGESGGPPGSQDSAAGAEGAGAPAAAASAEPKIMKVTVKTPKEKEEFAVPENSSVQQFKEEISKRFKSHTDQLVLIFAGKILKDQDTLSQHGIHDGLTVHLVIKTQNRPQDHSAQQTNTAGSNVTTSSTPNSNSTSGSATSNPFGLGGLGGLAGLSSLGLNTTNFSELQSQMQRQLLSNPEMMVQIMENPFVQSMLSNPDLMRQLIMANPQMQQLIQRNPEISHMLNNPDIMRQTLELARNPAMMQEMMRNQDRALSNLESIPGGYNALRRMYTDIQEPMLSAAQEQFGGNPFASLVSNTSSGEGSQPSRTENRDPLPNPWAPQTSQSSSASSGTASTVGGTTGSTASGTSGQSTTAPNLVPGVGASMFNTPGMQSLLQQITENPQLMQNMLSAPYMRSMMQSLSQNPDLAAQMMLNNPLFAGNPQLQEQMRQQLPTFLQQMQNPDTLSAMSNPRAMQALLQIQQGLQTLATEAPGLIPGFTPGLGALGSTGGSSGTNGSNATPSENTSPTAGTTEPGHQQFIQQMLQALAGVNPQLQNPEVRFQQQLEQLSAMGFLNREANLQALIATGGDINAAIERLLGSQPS

effect of a mutation on the interaction	Variant
with no effect	C840A

Variants of: B3
Conditions: with TTC23L

effect of a mutation on the interaction	Variant
causing an interaction	C843A

Variants of: B4
Conditions: with DAZAP2, Q15038-1

effect of a mutation on the interaction	Variant
causing an interaction	C840A

Variants of: B5
Conditions: with DAZAP2, Q15038-1

effect of a mutation on the interaction	Variant
causing an interaction	C820A

Variants of: B6
Conditions: with ZNF250, P15622-3
Target sequence in this assay (P15622 other isoform, or with tags, fused parts or gaps): as the sequence (P15622 other isoform, or with tags, fused parts or gaps) above

effect of a mutation on the interaction	Variant
causing an interaction	C820A

Variants of: B6
Conditions: with PAX6, P26367-1
Target sequence in this assay (P26367 whole entry): as the sequence (P26367 whole entry) above

effect of a mutation on the interaction	Variant
causing an interaction	C820A

Variants of: B6
Conditions: with magac_human MAGEA12, P43365
Target sequence in this assay (P43365 whole entry): as the sequence (P43365 whole entry) above

effect of a mutation on the interaction	Variant
with no effect	C820A

Variants of: B6
Conditions: with PSMD4, P55036-1
Target sequence in this assay (P55036 whole entry): as the sequence (P55036 whole entry) above

effect of a mutation on the interaction	Variant
with no effect	C820A

Variants of: B6
Conditions: with PAX5, Q02548-1
Target sequence in this assay (Q02548 whole entry): as the sequence (Q02548 whole entry) above

effect of a mutation on the interaction	Variant
causing an interaction	C820A

Variants of: B6
Conditions: with PTCD3, Q96EY7-1

effect of a mutation on the interaction	Variant
with no effect	C820A

Variants of: B6
Conditions: with ubql2_human UBQLN2, Q9UHD9
Target sequence in this assay (Q9UHD9 whole entry): as the sequence (Q9UHD9 whole entry) above

effect of a mutation on the interaction	Variant
with no effect	C820A

Variants of: B6
Conditions: with UBQLN1, Q9UMX0-1
Target sequence in this assay (Q9UMX0 whole entry): as the sequence (Q9UMX0 whole entry) above

effect of a mutation on the interaction	Variant
with no effect	C820A

Variants of: B6
Conditions: with herc2_human HERC2, O95714

effect of a mutation on the interaction	Variant
causing an interaction	C820A
